Assay [1] deals with full-length ectodomains (EC1 to EC5) of mouse E-cadherin, wild type (mouse). Description: high-speed atomic force microscopy.
Assay [2] concerns the target mouse E-cadherin full-length ectodomains, W2A mutant (mouse). The assay can be described thus: high-speed atomic force microscopy.

As usually defined, the stoichiometry N is the number of molecules, sites or subunits per partner or assembly.

“full-length ectodomains (EC1 to EC5) of mouse E-cadherin, wild type (domain or fragment)” gave a stoichiometry N in assay [1] of 2.

In assay [2], “mouse E-cadherin full-length ectodomains, W2A mutant (domain or fragment)” came in with a share of the observed dimers that are S-shaped of 45% and a share of the observed dimers that are cross-shaped (X-like dimer) of 20%.

The record behind these values is PMC9335211.
